Laboratory results reported in patent US20190015518A1, “DRUG DELIVERY COMPOSITIONS AND METHODS” (priority 2016, published 2019).

Tests used:
[1] = tested on: MDA-1986 head and neck tumors; test: Anticancer efficacy, orthotopic xenograft model of human HNSCC; type: in vivo, mouse; parameters: key to tumor response, Modified RECIST: PR=Partial Response (>30% reduction); PD=Progressive Disease (>30% tumor growth); SD=Stable Disease (neither PR nor PD criteria met)
Description: The MDA-1986 cells were prepared in PBS at a concentration of 2×10^7 cells/mL. Female NU/NU mice were anesthetized under 2% isoflurane in O2, and 50 μL of cell solution was injected into the oral sub-mucosa of the mice using a 27-ga needle. All procedures in the animal study were approved by the Institutional Animal Care and Use Committee of the University of Kansas. Tumor growth was monitored twice weekly by measurement with a digital caliper, and the tumor volume was calculated as 0.52×(width)^2×(length). […] The drugs were given weekly for 3 consecutive weeks.

[2] = Clinical chemistry of a healthy dog given 1.5 mg/kg on day 1 and 2.0 mg/kg on day 70, sub-mucosa; type: in vivo
Description: Before each dose, the dog was examined by clinical chemistry, hematology, and urinalysis. Additional examinations of clinical chemistry and hematology were performed on days 7, 14, and 42 after the first dose. Additional tests of urinalysis were performed on days 7 and 14 after the first dose. The potential drug-induced toxicities were monitored for 56 days after the second dose. Specifically, clinical chemistry and urinalysis were performed on days 7, 14, 21, and 56, and hematology was performed on days 7, 14, and 56 after the second dose to evaluate the tolerability and toxicity of the formulation.
Clinical chemistry examinations were performed at pre- and post-dose for both injections. The injections were given via the sub-mucosa in the mouth.

[3] = 20 mg/kg s.c., three weekly injections

Substance: HA-cis-[Pt(NH3)2(N^α-Acetyl-L-Lysine)] [75HA-Lys-Pt]
- average tumor size by the end of the sixth week [1, 3]: less than 200 mm^3
- tumor progression delay [1, 3]: delayed by four weeks
- tumor response, Modified RECIST ([1]; animal #1): PR (PR=Partial Response (>30% reduction))
- tumor response, Modified RECIST ([1]; animal #2): PR (PR=Partial Response (>30% reduction))
- tumor response, Modified RECIST ([1]; animal #3): PR (PR=Partial Response (>30% reduction))
- tumor response, Modified RECIST ([1]; animal #4): SD
- tumor response, Modified RECIST ([1]; animal #5): SD
- tumor response, Modified RECIST ([1]; animal #6): PR (PR=Partial Response (>30% reduction))
- tumor response, Modified RECIST ([1]; animal #7): SD
- tumor response, Modified RECIST ([1]; animal #8): PR (PR=Partial Response (>30% reduction))
- rate of partial response (PR) ([1]; three weekly injections): 62.5%
- ALP elevation ([2]; 2 mg/kg, 7-days post-dose): 0.7 fold
- ALT elevation ([2]; 2 mg/kg, 7-days post-dose): 4.6 fold
- AST elevation ([2]; 2 mg/kg, 7-days post-dose): 8.7 fold
- ALP, higher than the pre-dose level ([2]; 2 mg/kg, 8-weeks post-dose): 0.27 fold
- Alanine aminotransferase ([2]; 2 mg/kg, 7 days after): 330 U/L
- Albumin ([2]; 2 mg/kg, 7 days after): 2.5 g/dL
- Alkaline phosphatase ([2]; 2 mg/kg, 7 days after): 237 U/L
- Aspartate aminotransferase ([2]; 2 mg/kg, 7 days after): 309 U/L
- Calcium ([2]; 2 mg/kg, 7 days after): 9.3 mg/dL
- Cholesterol ([2]; 2 mg/kg, 7 days after): 81 mg/dL
- Creatine kinase ([2]; 2 mg/kg, 7 days after): 105 U/L
- Creatinine ([2]; 2 mg/kg, 7 days after): 0.25 mg/dL
- Gamma glutamyltransferase ([2]; 2 mg/kg, 7 days after): 0 U/L
- Globulin ([2]; 2 mg/kg, 7 days after): 2.9 g/dL
- Glucose ([2]; 2 mg/kg, 7 days after): 83 mg/dL
- Inorganic Phosphorus ([2]; 2 mg/kg, 7 days after): 2.8 mg/dL
- Total Bilirubin ([2]; 2 mg/kg, 7 days after): 0.3 mg/dL
- Total Protein ([2]; 2 mg/kg, 7 days after): 5.4 g/dL
- Triglyceride ([2]; 2 mg/kg, 7 days after): 32 mg/dL
- Urea Nitrogen ([2]; 2 mg/kg, 7 days after): 11 mg/dL
- Alanine aminotransferase ([2]; 2 mg/kg, 14 days after): 223 U/L
- Albumin ([2]; 2 mg/kg, 14 days after): 2.4 g/dL
- Alkaline phosphatase ([2]; 2 mg/kg, 14 days after): 249 U/L
- Calcium ([2]; 2 mg/kg, 14 days after): 8.6 mg/dL
- Cholesterol ([2]; 2 mg/kg, 14 days after): 75 mg/dL
- Creatine kinase ([2]; 2 mg/kg, 14 days after): 143 U/L
- Creatinine ([2]; 2 mg/kg, 14 days after): 0.3 mg/dL
- Gamma glutamyltransferase ([2]; 2 mg/kg, 14 days after): 0 U/L
- Glucose ([2]; 2 mg/kg, 14 days after): 76 mg/dL
- Inorganic Phosphorus ([2]; 2 mg/kg, 14 days after): 3.4 mg/dL
- Total Bilirubin ([2]; 2 mg/kg, 14 days after): 0.1 mg/dL
- Total Protein ([2]; 2 mg/kg, 14 days after): 5.5 g/dL
- Triglyceride ([2]; 2 mg/kg, 14 days after): 43 mg/dL
- Urea Nitrogen ([2]; 2 mg/kg, 14 days after): 14 mg/dL
- Alanine aminotransferase ([2]; 2 mg/kg, 21 days after): 198 U/L
- Albumin ([2]; 2 mg/kg, 21 days after): 2.7 g/dL
- Alkaline phosphatase ([2]; 2 mg/kg, 21 days after): 219 U/L
- Aspartate aminotransferase ([2]; 2 mg/kg, 21 days after): 129 U/L
- Calcium ([2]; 2 mg/kg, 21 days after): 9.3 mg/dL
- Cholesterol ([2]; 2 mg/kg, 21 days after): 70 mg/dL
- Creatinine ([2]; 2 mg/kg, 21 days after): 0.33 mg/dL
- Gamma glutamyltransferase ([2]; 2 mg/kg, 21 days after): 0 U/L
- Glucose ([2]; 2 mg/kg, 21 days after): 64 mg/dL
- Inorganic Phosphorus ([2]; 2 mg/kg, 21 days after): 3.9 mg/dL
- Total Bilirubin ([2]; 2 mg/kg, 21 days after): 0.2 mg/dL
- Total Protein ([2]; 2 mg/kg, 21 days after): 5.8 g/dL
- Triglyceride ([2]; 2 mg/kg, 21 days after): 39 mg/dL
- Urea Nitrogen ([2]; 2 mg/kg, 21 days after): 14 mg/dL
- Alanine aminotransferase ([2]; 2 mg/kg, 56 days after): 220 U/L
- Albumin ([2]; 2 mg/kg, 56 days after): 3.0 g/dL
- Alkaline phosphatase ([2]; 2 mg/kg, 56 days after): 173 U/L
- Aspartate aminotransferase ([2]; 2 mg/kg, 56 days after): 138 U/L
- Calcium ([2]; 2 mg/kg, 56 days after): 9.7 mg/dL
- Cholesterol ([2]; 2 mg/kg, 56 days after): 86 mg/dL
- Creatine kinase ([2]; 2 mg/kg, 56 days after): 117 U/L
- Creatinine ([2]; 2 mg/kg, 56 days after): 0.3 mg/dL
- Gamma glutamyltransferase ([2]; 2 mg/kg, 56 days after): 0 U/L
- Globulin ([2]; 2 mg/kg, 56 days after): 3.3 g/dL
- Glucose ([2]; 2 mg/kg, 56 days after): 73 mg/dL
- Inorganic Phosphorus ([2]; 2 mg/kg, 56 days after): 2.5 mg/dL
- Total Bilirubin ([2]; 2 mg/kg, 56 days after): 0.4 mg/dL
- Total Protein ([2]; 2 mg/kg, 56 days after): 6.3 g/dL
- Triglyceride ([2]; 2 mg/kg, 56 days after): 42 mg/dL
- Urea Nitrogen ([2]; 2 mg/kg, 56 days after): 14 mg/dL
- Alanine aminotransferase ([2]; […], 7 days after): 36 U/L
- Albumin ([2]; […], 7 days after): 2.4 g/dL
- Alkaline phosphatase ([2]; […], 7 days after): 132 U/L
- Aspartate aminotransferase ([2]; […], 7 days after): 67 U/L
- Calcium ([2]; […], 7 days after): 8.8 mg/dL
- Cholesterol ([2]; […], 7 days after): 89 mg/dL
- Creatine kinase ([2]; […], 7 days after): 93 U/L
- Creatinine ([2]; […], 7 days after): 0.33 mg/dL
- Globulin ([2]; […], 7 days after): 2.6 g/dL
- Glucose ([2]; […], 7 days after): 70 mg/dL
- Inorganic Phosphorus ([2]; […], 7 days after): 3.3 mg/dL
- Total Bilirubin ([2]; […], 7 days after): 0.1 mg/dL
- Total Protein ([2]; […], 7 days after): 5.0 g/dL
- Triglyceride ([2]; […], 7 days after): 34 mg/dL
- Urea Nitrogen ([2]; […], 7 days after): 13 mg/dL
- Alanine aminotransferase ([2]; […], 14 days): 57 U/L
- Albumin ([2]; […], 14 days): 2.4 g/dL
- Alkaline phosphatase ([2]; […], 14 days): 116 U/L
- Aspartate aminotransferase ([2]; […], 14 days): 89 U/L
- Calcium ([2]; […], 14 days): 9.4 mg/dL
- Cholesterol ([2]; […], 14 days): 97 mg/dL
- Creatine kinase ([2]; […], 14 days): 207 U/L
- Creatinine ([2]; […], 14 days): 0.35 mg/dL
- Globulin ([2]; […], 14 days): 2.8 g/dL
- Glucose ([2]; […], 14 days): 80 mg/dL
- Inorganic Phosphorus ([2]; […], 14 days): 5.5 mg/dL
- Total Bilirubin ([2]; […], 14 days): 0.0 mg/dL
- Total Protein ([2]; […], 14 days): 5.2 g/dL
- Triglyceride ([2]; […], 14 days): 38 mg/dL
- Urea Nitrogen ([2]; […], 14 days): 19 mg/dL
- Alanine aminotransferase ([2]; […], 42 days): 74 U/L
- Albumin ([2]; […], 42 days): 3.0 g/dL
- Alkaline phosphatase ([2]; […], 42 days): 125 U/L
- Aspartate aminotransferase ([2]; […], 42 days): 39 U/L
- Creatine kinase ([2]; […], 42 days): 159 U/L
- Globulin ([2]; […], 42 days): 2.5 g/dL
- Total Bilirubin ([2]; […], 42 days): 0.0 mg/dL
- Total Protein ([2]; […], 42 days): 5.5 g/dL
